Experiments:
[1] = molecular target: T1, human CTLA-4-Fc (Chimerigen) (human, UniProt P16410 36-161; P01857 99-330 = IgG part, limits assumed); experiment: competition FACS: HuCTLA4-Ig 10 ug/ml pre-incubated with the antagonist, then staining of P815 cells transfected with human B7.2; blocked ligand B7.2
T1 construct: extracellular domain;domain: Fc portion; Bought protein; also called hCTLA-4-Fc; huCTLA-4-Ig

mCTLA-4-Fc (R&D Systems) [2] = molecular target: T2, mCTLA-4-Fc (R&D Systems) (mouse, UniProt P09793 36-162); experiment: SPR, Fc fusion captured via anti-human IgG Fc
[3] = molecular target: T1, human CTLA-4-Fc (Chimerigen); experiment: SPR, Fc fusion captured via anti-human IgG Fc
Target sequence in this assay (P16410 other isoform, or with tags, fused parts or gaps mutant limits assumed): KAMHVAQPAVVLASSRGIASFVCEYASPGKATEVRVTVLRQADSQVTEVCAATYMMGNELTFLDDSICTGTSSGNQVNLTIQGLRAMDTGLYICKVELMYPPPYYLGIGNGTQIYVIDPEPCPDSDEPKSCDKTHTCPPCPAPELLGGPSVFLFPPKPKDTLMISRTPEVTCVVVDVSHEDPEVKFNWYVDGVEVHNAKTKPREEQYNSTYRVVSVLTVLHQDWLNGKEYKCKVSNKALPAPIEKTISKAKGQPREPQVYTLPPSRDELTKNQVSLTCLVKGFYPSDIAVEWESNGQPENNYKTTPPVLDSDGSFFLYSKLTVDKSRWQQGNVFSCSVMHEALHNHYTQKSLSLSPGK

[4] = molecular target: T1, human CTLA-4-Fc (Chimerigen); experiment: ELISA towards hCTLA-4-Fc
Target sequence in this assay (P16410 other isoform, or with tags, fused parts or gaps mutant limits assumed): as above

[5] = molecular target: T1, human CTLA-4-Fc (Chimerigen); experiment: competition FACS: 2.5 nM human CTLA-4 Fc pre-incubated with the antagonist, then staining of Raji cells; % inhibition of CTLA-4 Fc binding; blocked ligands B7.1 and B7.2
mCTLA-4-Fc (R&D Systems) [6] = molecular target: T2, mCTLA-4-Fc (R&D Systems); experiment: SPR; KD listed beside Tm
[7] = molecular target: T1, human CTLA-4-Fc (Chimerigen); experiment: SPR; KD listed beside Tm
Target sequence in this assay (P16410 other isoform, or with tags, fused parts or gaps mutant limits assumed): as above

mCTLA-4-Fc (R&D Systems) [8] = molecular target: T2, mCTLA-4-Fc (R&D Systems); experiment: SPR as in Example 9
[9] = molecular target: T1, human CTLA-4-Fc (Chimerigen); experiment: SPR as in Example 9
Target sequence in this assay (P16410 other isoform, or with tags, fused parts or gaps mutant limits assumed): as above

[10] = molecular target: T1, human CTLA-4-Fc (Chimerigen); experiment: SPR-Affinity towards hCTLA-4-Fc
Target sequence in this assay (P16410 other isoform, or with tags, fused parts or gaps mutant limits assumed): as above

[11] = molecular target: T3, mouse CTLA-4 Fc (Chimerigen) (mouse, UniProt P09793 36-161); experiment: FACS competition: inhibition of 2.5 nM mCTLA-4 Fc binding to Raji cells (B7.1, B7.2)
T3 construct: also called muCTLA-4-Ig; muCTLA-4-Fc; not shown: Fc part not described; detected with anti-mouse IgG-phycoerythrin

[12] = molecular target: T1, human CTLA-4-Fc (Chimerigen); experiment: FACS competition: inhibition of 2.5 nM hCTLA-4 Fc binding to Raji cells (B7.1, B7.2)
[13] = molecular target: T1, human CTLA-4-Fc (Chimerigen); experiment: SPR-Affinity of the monomer towards hCTLA-4-Fc
Target sequence in this assay (P16410 other isoform, or with tags, fused parts or gaps mutant limits assumed): as above

[14] = molecular target: T4, human CTLA-4 on the cell surface (transfected CHO and A431 cells; CD152-expressing cells of human tonsil) (human, UniProt P16410 36-223); experiment: indirect immunoperoxidase staining of cryosections; column Negative Control Antibody [Isotype-matched hNGALwt_58]
T4 construct: whole, on cells; also called CHO-hCTLA-4; CHO::hCTLA-4
T4 sequence (looked up): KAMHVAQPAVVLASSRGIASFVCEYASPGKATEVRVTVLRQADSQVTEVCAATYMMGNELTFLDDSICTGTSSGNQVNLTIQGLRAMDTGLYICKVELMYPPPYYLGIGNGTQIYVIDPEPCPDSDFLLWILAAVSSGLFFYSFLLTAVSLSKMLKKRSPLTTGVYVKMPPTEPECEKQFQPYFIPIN

[15] = molecular target: T1, human CTLA-4-Fc (Chimerigen); experiment: Affinity-ELISA of the PEGylated monomer towards hCTLA-4-Fc
[16] = molecular target: T1, human CTLA-4-Fc (Chimerigen); experiment: SPR-Affinity of the PEGylated monomer towards hCTLA-4-Fc

T2 sequence (P09793 whole entry, the tested form may be a part): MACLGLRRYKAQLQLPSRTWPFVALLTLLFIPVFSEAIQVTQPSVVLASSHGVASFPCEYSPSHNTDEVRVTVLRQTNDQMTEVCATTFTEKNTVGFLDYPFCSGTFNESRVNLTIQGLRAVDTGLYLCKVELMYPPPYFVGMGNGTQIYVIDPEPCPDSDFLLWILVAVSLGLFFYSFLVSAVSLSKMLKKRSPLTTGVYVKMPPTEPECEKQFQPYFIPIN

B1: hNGAL mutein S94.7-Q13 (designed binder)
chain: QDSTSDLIPAPPLSKVPLQQNFQDNQFHGKWYVVGLAGNRILRDDQHPMNMYATIYELKEDKSYNVTSVIFPHKKCEYTIATFVPGSQPGEFTLGNIKSYGDKTSYLVRVVSTNYNQHATVFFKLAEDNAEFFAITIYGRTKELASELKENFIRFSKSLGLPENHIVFPVPIDQCIDGSAWSHPQF
notes: also called CTLA-4-Q13
IC50 (read off the curve) [1]: ~5 µg/mL | Kd (mCTLA-4-Fc (R&D Systems) [2]): 39.5 nM | koff (mCTLA-4-Fc (R&D Systems) [2]): 0.00017 s⁻¹ | kon (mCTLA-4-Fc (R&D Systems) [2]): 4300 M⁻¹ s⁻¹ | Kd [3]: 11.8 nM | koff [3]: 7.1e-05 s⁻¹ | kon [3]: 6000 M⁻¹ s⁻¹

B2: hNGAL mutein S140.4-O10 (designed binder)
chain: QDSTSDLIPAPPLSKVPLQQNFQDNQFHGKWYVVGLAGNRILRDDQHPMNMYATIYELKEDKSYNVTSVISSHKKCEYTIATFVPGSQPGEFTLGNIKSYGDKTSYLVRVVSTDYNQYAVVFFKLAEDNAEFFAITIYGRTKELASELKENFIRFSKSLGLPENHIVFPVPIDQCIDG
notes: also called Onc I-002
ELISA affinities [4]: 3.8 nM | IC50 (read off the curve) [5]: ~2 nM | Kd (mCTLA-4-Fc (R&D Systems) [6]): 40.8 nM | Kd [7]: 8.3 nM | Kd (mCTLA-4-Fc (R&D Systems) [8]): 40.8 nM | koff (mCTLA-4-Fc (R&D Systems) [8]): 0.00049 s⁻¹ | kon (mCTLA-4-Fc (R&D Systems) [8]): 11900 M⁻¹ s⁻¹ | Kd [9]: 8.3 nM | koff [9]: 0.000221 s⁻¹ | kon [9]: 15300 M⁻¹ s⁻¹ | Kd [10]: 3.7 nM

B3: hNGAL mutein S140.4-O10 without T7 tag (designed binder)
chain: B2 chain
notes: also called S140.4-O10 (-T7 tag); S140.4-O10(-T7)
IC50 [11]: 15.5 nM | Kd (mCTLA-4-Fc (R&D Systems) [8]): 15.3 nM | koff (mCTLA-4-Fc (R&D Systems) [8]): 0.000416 s⁻¹ | kon (mCTLA-4-Fc (R&D Systems) [8]): 27200 M⁻¹ s⁻¹ | Kd [9]: 3.9 nM | koff [9]: 0.000108 s⁻¹ | kon [9]: 27700 M⁻¹ s⁻¹ | IC50 [12]: 2.5 nM | Kd [13]: 3 nM

B4: S140.4-O10-ABD (fusion with the albumin binding domain of streptococcal protein G) (designed binder)
chain: QDSTSDLIPAPPLSKVPLQQNFQDNQFHGKWYVVGLAGNRILRDDQHPMNMYATIYELKEDKSYNVTSVISSHKKCEYTIATFVPGSQPGEFTLGNIKSYGDKTSYLVRVVSTDYNQYAVVFFKLAEDNAEFFAITIYGRTKELASELKENFIRFSKSLGLPENHIVFPVPIDQCIDGSGGAVDANSLAEAKVLANRELDKYGVSDYYKNLINNAKTVEGVKALIDEILAALPSAWSHPQFEK
notes: Original linker of protein G between mutein and ABD; also called Onc I-004
ELISA affinities [4]: 3.3 nM | IC50 (read off the curve) [5]: ~4 nM | Kd [10]: 8.9 nM

B5: control lipocalin hNGAL wt58 (other)
chain: QDSTSDLIPAPPLSKVPLQQNFQDNQFHGKWYVVGLAGNAILREDKDPQKMYATIYELKEDKSYNVTSVLFRKKKCDYWIRTFVPGSQPGEFTLGNIKSYPGLTSYLVRVVSTNYNQHAMVFFKKVSQNREYFKITIYGRTKELASELKENFIRFSKSLGLPENHIVFPVPIDQCIDG
notes: also called hNGAL-58; hNGAL58
binding result [14]: no binding (tested: 40 µg/mL)

B6: S140.4-O10 site-directed PEGylated at Cys 87 with 20k PEG (designed binder)
chain: QDSTSDLIPAPPLSKVPLQQNFQDNQFHGKWYVVGLAGNRILRDDQHPMNMYATIYELKEDKSYNVTSVISSHKKCEYTIATFVPGCQPGEFTLGNIKSYGDKTSYLVRVVSTDYNQYAVVFFKLAEDNAEFFAITIYGRTKELASELKENFIRFSKSLGLPENHIVFPVPIDQCIDGSAWSHPQFEK
modifications: chain 1 pos 87: Cys carrying linear 20 kDa PEG-maleimide, written C
notes: also called O10_PEG(20k); S140.4-O10-PEG (20k)
ELISA affinities [4]: 3.6 nM | IC50 (read off the curve) [5]: ~4 nM | Kd [10]: 11 nM

B7: S140.4-O10 site-directed PEGylated at Cys 87 with 12k PEG (designed binder)
chain: B6 chain
modifications: chain 1 pos 87: Cys carrying linear 12k PEG-maleimide on its thiol, written C
notes: also called O10_PEG(12k); O10_S87C PEGylated monomer
ELISA affinities [4]: 3.2 nM | Kd [10]: 20 nM | ELISA-Affinity PEGylated Monomer [15]: 52 nM | Kd [16]: 26 nM

B8: S140.4-O10 site-directed PEGylated at Cys 87 with 30k PEG (designed binder)
chain: B6 chain
modifications: chain 1 pos 87: Cys carrying linear 30 kDa PEG-maleimide, written C
notes: also called O10_PEG(30k); S140.4-O10-PEG(30k)
ELISA affinities [4]: 3 nM

Reference: US20090042785A1 (Pieris, published 2009)
